Measured values: patent publication US20150353597A1 (TEXAS A AND M UNIVERSITY SYSTEM, published 2015)

B1: C*-CAT (construct 9) (other)
chain: MIKIATRKYLGKQNVYGIGVERDHNFALKNGFIASNCFNASMEKKITGYTTVDISQWHRKEHFEAFQSVAQCTYNQTVQLDITAFLKTVKKNKHKFYPAFIHILARLMNAHPEFRMAMKDGELVIWDSVHPCYTVFHEQTETFSSLWSEYHDDFRQFLHIYSQDVACYGENLAYFPKGFIENMFFVSANPWVSFTSFDLNVANMDNFFAPVFTMGKYYTQGDKVLMPLAIQVHHAVCDGFHVGRMLNELQQYCDEWQGGALEHHHHHH
notes: also called C*-chloramphenicol acetyl transferase
B2: C*-PTDH (construct 6) (other)
chain: MIKIATRKYLGKQNVYGIGVERDHNFALKNGFIASNCFNASMLPKLVITHRVHEEILQLLAPHCELITNQTDSTLTREEILRRCRDAQAMMAFMPDRVDADFLQACPELRVIGCALKGFDNFDVDACTARGVWLTFVPDLLTVPTAELAIGLAVGLGRHLRAADAFVRSGKFRGWQPRFYGTGLDNATVGFLGMGAIGLAMADRLQGWGATLQYHARKALDTQTEQRLGLRQVACSELFASSDFILLALPLNADTLHLVNAELLALVRPGALLVNPCRGSVVDEAAVLAALERGQLGGYAADVFEMEDWARADRPQQIDPALLAHPNTLFTPHIGSAVRAVRLEIERCAAQNILQALAGERPINAVNRLPKANPAADLEHHHHHH
notes: also called NpuDnaE C-fragment Asp118Gly fused to phosphite dehydrogenase

Key:
ELP-N (construct 5) [1] = biological target: T1, ELP-N (construct 5); test: co-precipitation with ELP-N by ammonium sulfate
T1 construct: also called ELP intein N-fragment

NC1A-CBD (construct 12) [2] = test: cell-based or functional assay
ELP-N (construct 5) [3] = biological target: T1, ELP-N (construct 5); test: lysates mixed 10 min at room temperature, 0.4 M ammonium sulfate precipitation of the ELP complex, SDS-PAGE
NC1A-CBD (construct 12) [4] = biological target: T2, NC1A-CBD (construct 12); test: capture from E. coli lysate on chitin-bound NC1A-CBD, 0.5 mM ZnCl2, SDS-PAGE densitometry
T2 construct: free in solution in the kinetic assays
Experimental: Sample purification via SIRP (FIG. 14): A disposable column containing 150 μL chitin resin was loaded with soluble lysate containing NC1A-CBD in Buffer A (0.5 M NaCl, 10 mM Tris-HCl, pH 8.0) and washed 4 times with 10 column volumes (CV) of Buffer B (0.5 M NaCl, 50 mM NaPOi, pH 6.0). All loading and washing steps were performed in batch phase. The last wash was supplemented with 0.5 mM ZnCl₂. […] The column was subsequently washed with 10 CV of Buffer B with ZnCl₂ (0.5 mM) and finally incubated in 4 CV of Buffer A containing 50 mM DTT at room temperature for 30 min or at 6° C. for 3 h.

| Binder | binding result (ELP-N (construct 5) [1]) | percent of PTDH cleaved from C*-PTDH within 30 seconds, 1:1 molar ratio, 50 mM DTT, 22 C and 6 C (NC1A-CBD (construct 12) [2]) | binding result (ELP-N (construct 5) [3]) | molar ratio of bound C*-POI to NC1A-CBD (NC1A-CBD (construct 12) [4]) |
| --- | --- | --- | --- | --- |
| B1 | binds | – | – | – |
| B2 | – | ~50% | binds | 0.35 molar ratio |
